In experiment [1] the target is fluorescent receptor NK2R-RF1 (construct pCEP4-NK2R-RF1): EGFP fused between the alpha7 signal peptide and the amino-terminal end of the rat NK2R receptor, expressed on HEK 293 cells (Aequorea victoria; rat) (UniProt P16610). Put plainly: displacement of 3H SR 48968 on HEK 293 cells expressing NK2R-RF1, filtration. In general terms: Loss of bound radioactivity is the signal in a displacement assay; it reports binding, not function.

Experiment [2] has as its target wild-type rat NK2R receptor of tachykinins (construct pCEP4-NK2R), expressed on HEK 293 cells (rat) (UniProt P16610). Put plainly: displacement of 3H SR 48968 on HEK 293 cells expressing wild-type NK2R, filtration.
Experiment [3] deals with fluorescent receptor NK2R-RF1 (construct pCEP4-NK2R-RF1): EGFP fused between the alpha7 signal peptide and the amino-terminal end of the rat NK2R receptor, expressed on HEK 293 cells (Aequorea victoria; rat) (UniProt P16610). The experiment is described as follows: displacement of 3H SR 48968 on HEK 293 cells expressing NK2R-RF1, filtration (FIG. 8b).
For experiment [4] the target is unchanged. The experiment is described as follows: FRET saturation on cells expressing NK2R-RF1, 0 to 256 nM NKA BO I.
For experiment [5] the target is unchanged. Put plainly: FRET saturation: amplitude of EGFP fluorescence extinction against NKA BO I concentration, cells expressing NK2R-RF1 (FIG. 13).
The target in experiment [6] is T1, wild-type rat NK2R receptor of tachykinins (construct pCEP4-NK2R), expressed on HEK 293 cells (rat, UniProt P16610 1-390).
T1 construct: whole, on cells; Stably expressed in HEK 293 cells; also called NK2R-WT; NK2R WT
T1 sequence (looked up): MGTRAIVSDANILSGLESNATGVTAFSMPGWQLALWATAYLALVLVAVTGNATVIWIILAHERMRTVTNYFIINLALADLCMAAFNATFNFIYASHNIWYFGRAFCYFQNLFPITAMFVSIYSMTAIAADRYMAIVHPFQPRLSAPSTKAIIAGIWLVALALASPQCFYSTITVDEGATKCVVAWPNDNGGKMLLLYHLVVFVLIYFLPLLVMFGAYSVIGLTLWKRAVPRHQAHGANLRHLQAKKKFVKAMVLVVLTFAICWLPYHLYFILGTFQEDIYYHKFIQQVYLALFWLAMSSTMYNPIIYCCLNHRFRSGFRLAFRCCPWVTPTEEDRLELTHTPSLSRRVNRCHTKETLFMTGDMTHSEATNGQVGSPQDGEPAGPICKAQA
Put plainly: displacement of 3H SR 48968 on HEK 293 cells expressing NK2R-WT, filtration (FIG. 8a). On the procedure:
The incubation is carried out for one hour at 4° C. Filtration is carried out at the end of incubation, as described in 3b).

This passage reports Ki and Kd results from patent publication US20060275828A1 (CENTRE NATIONAL DE LA RECHERCHE SCIENTIFIQUE, published 2006).

One may read the Ki as a dissociation constant, usually derived from enzyme kinetics or from competition with a known ligand. Usually Kd stands for the concentration at which binding is half-saturated. Lower therefore signals tighter binding.

Where no end group is shown, it is not given here.

On to MEN 10,376 (Bachem) (peptide), for which the Ki in experiment [1] was found to be 61 nM; in experiment [2], 53 nM.

“neurokinin A (from UniProt P20366 98-107) (peptide)”: the Ki in experiment [3] was 2.1 nM.

B1: NKA BO I (neurokinin A labeled with BODIPY 530/550 IA) (peptide, UniProt P20366 98-107, looked up)
peptide: HKTDSFVGLM
modifications: also: BODIPY 530/550 IA label, site not given here
notes: mature; HPLC-purified reaction product of NKA with BODIPY 530/550 IA; also called NKA BO 1; NKA-Bodipy derivative
Regarding B1, the Kd in experiment [4] is 20 to 30 nM; in experiment [5], 24 nM. Moreover, the Ki in experiment [3] and in experiment [6] was 16.1 nM throughout.
